# Entries after “also recorded” stand apart in the source; their conditions may differ.
# T1: E6APF727D (Homo sapiens, UniProt Q05086, F750D)
# T1 construct: made in house; host or cells: E. coli
# T1 sequence (Q05086 1-872 isoform Q05086-3 F747D): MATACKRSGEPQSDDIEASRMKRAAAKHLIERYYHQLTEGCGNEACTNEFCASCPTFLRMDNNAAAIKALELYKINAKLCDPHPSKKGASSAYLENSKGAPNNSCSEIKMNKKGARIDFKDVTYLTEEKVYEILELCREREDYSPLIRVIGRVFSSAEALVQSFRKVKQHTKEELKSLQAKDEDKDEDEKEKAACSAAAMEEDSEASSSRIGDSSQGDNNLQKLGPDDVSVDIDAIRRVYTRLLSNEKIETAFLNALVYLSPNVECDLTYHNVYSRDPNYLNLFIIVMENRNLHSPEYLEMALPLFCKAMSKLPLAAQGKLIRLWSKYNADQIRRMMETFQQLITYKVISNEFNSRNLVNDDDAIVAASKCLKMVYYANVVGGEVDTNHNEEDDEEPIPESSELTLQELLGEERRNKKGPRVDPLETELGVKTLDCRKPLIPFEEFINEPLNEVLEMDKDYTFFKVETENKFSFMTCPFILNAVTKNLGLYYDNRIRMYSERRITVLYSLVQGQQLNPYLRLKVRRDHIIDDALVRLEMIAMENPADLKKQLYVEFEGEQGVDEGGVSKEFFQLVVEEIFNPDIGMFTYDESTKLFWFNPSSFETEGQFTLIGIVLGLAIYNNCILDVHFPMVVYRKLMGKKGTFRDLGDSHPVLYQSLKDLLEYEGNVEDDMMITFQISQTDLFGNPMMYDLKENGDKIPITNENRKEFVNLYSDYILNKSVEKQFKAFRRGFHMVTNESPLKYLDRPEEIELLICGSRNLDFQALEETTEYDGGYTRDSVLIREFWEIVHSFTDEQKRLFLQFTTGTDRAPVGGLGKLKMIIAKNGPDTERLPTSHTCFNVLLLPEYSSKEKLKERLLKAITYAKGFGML
# B1: E6 protein: recombinant human papilloma virus 16 E6 protein, 158 amino acids (protein)
# chain: MHQKRTAMFQDPQERPRKLPQLCTELQTTIHDIILECVYCKQQLLRREVYDFAFRDLCIVYRDGNPYAVCDKCLKFYSKISEYRHYCYSLYGTTLEQQYNKPLCDLLIRCINCQKPLCPEEKQRHLDKKQRFHNIRGRWTGRCMSCCRSSRTRRETQL
# Biological target: T1, E6APF727D
# Assay: E6 rescue of 125I-polyubiquitin chain formation by E6APF727D
# Type: biochemical
# Conditions: 20 nM E6 protein
# Method: E6AP-catalyzed ^125I-Ubiquitin Conjugation Assay: The E3 ligase activity of recombinant E6AP ligase was quantitated in kinetic assays under initial velocity conditions (Ronchi et al., (2013) J. Biol. Chem. 288, 10349-10360, Ronchi & Haas (2012) Methods Mol. Biol. 832: 197-218). Rates of E6AP-catalyzed ^125I-polyubiquitin chain formation were measured at 37° C. in incubations of 25-μl final volume containing 50 mM Tris-HCl (pH 7.5), 1 mM ATP, 10 mM MgCl2, 1 mM DTT, 10 mM creatine phosphate, 1 IU of creatine phosphokinase, 5 μM ^125I-ubiquitin (approximately 1.5×10^4 cpm/pmol), 50 nM human Uba1, and the indicated concentrations of UbcH7 and E6AP ligase (Siepmann et al., (2003) J. Biol. Chem. 278: 9448-9457; Baboshina et al., (2001) J. Biol. Chem. 276: 39428-39437). […]
# Polyubiquitin chain formation was measured by excising lanes between the top of the resolving gel and the top of the stacker gel, representing anchored and free ^125I-polyubiquitin chains, respectively, and quantitating associated ^125I-ubiquitin by γ-counting. Absolute rates of ^125I-polyubiquitin chain formation were calculated from the associated radioactivity and the corrected specific radioactivity for ^125I-ubiquitin. Datum points represent single assay determinations, and complete data sets were evaluated by non-linear regression analysis using GraFit version 5.0 (Erithicus). […]
molecule,measurement,value
B1,effect on E6APF727D,significantly enhanced; also recorded: rescues the kcat defect

# — patent publication US9725708B2, “Methods of modulating ubiquitin ligase activity” (Board of Supervisors of Louisiana State University and …, priority 2012, dated 2017)
